According to patent publication US9217013B2, “Treatment of amyloidoses using myelin basic protein and fragments thereof” (The Research Foundation for the State University of New York, priority 2008, dated 2015):

How the values were obtained:
[1] = target: T1, fibrillar Aβ (Homo sapiens, UniProt P05067, E693Q); assay: Solid-phase binding assay, competition against biotinylated sAβPPα
T1 construct: made in house; host or cells: chemical synthesis (solid-phase Fmoc)
Experimental: Aβ peptides or amylin were assembled into fibrils as described above. […] Two μg of each fibrillar Aβ peptide, fibrillar amylin, or ovalbumin in 100 μl of phosphate-buffered saline (PBS) were dried in a 96-well microtiter plate (Corning, Cambridge, Mass.) overnight at 37° C. The wells were rinsed with PBS three times and blocked with 100 μl per well PBS containing 1 mg/ml bovine serum albumin (BSA) for 1 hour at room temperature. After rinsing three times with PBS, known concentrations of biotinylated sAβPPα in PBS containing 0.1 mg/ml BSA were incubated in triplicate (100 μl per well) for 1 hour at room temperature. After rinsing the wells with PBS three times, 100 μl of streptavidin conjugated to horseradish peroxidase in PBS containing 0.1 mg/ml BSA (1:800) was added for 1 hour at room temperature. The binding of biotinylated sAβPPα was detected using the colorimetric substrate o-phenylenediamine dihydrocholride as described by the manufacturer (InVitrogen). Briefly, the substrate was diluted in buffer (0.1 M sodium citrate, pH 4.5) to a final concentration of 1 mg/ml. H202 was added to a final concentration of 0.012% immediately before 100 μl of the substrate was added to each microtiter well. […] The conversion of the colorimetric substrate was measured at a wavelength of 490 nm using a Molecular Dynamics Vmax kinetic plate reader (Sunnyvale, Calif.). […]

[2] = target: T2, fibrillar Dutch-type Aβ-(1-40) (Homo sapiens, UniProt P05067, E693Q); assay: Solid-phase binding of GST-AβPP-(18-119) proteins to fibrillar Dutch-type Aβ; settings: for binding to fibrillar Aβ compared with wild-type GST-AβPP-(18-119): alanine substitution mutants
T2 construct: made in house; host or cells: chemical synthesis (solid-phase Fmoc)
Experimental: (§1) Aβ peptides or amylin were assembled into fibrils as described above. […] Two μg of each fibrillar Aβ peptide, fibrillar amylin, or ovalbumin in 100 μl of phosphate-buffered saline (PBS) were dried in a 96-well microtiter plate (Corning, Cambridge, Mass.) overnight at 37° C. The wells were rinsed with PBS three times and blocked with 100 μl per well PBS containing 1 mg/ml bovine serum albumin (BSA) for 1 hour at room temperature. After rinsing three times with PBS, known concentrations of biotinylated sAβPPα in PBS containing 0.1 mg/ml BSA were incubated in triplicate (100 μl per well) for 1 hour at room temperature. After rinsing the wells with PBS three times, 100 μl of streptavidin conjugated to horseradish peroxidase in PBS containing 0.1 mg/ml BSA (1:800) was added for 1 hour at room temperature. The binding of biotinylated sAβPPα was detected using the colorimetric substrate o-phenylenediamine dihydrocholride as described by the manufacturer (InVitrogen). Briefly, the substrate was diluted in buffer (0.1 M sodium citrate, pH 4.5) to a final concentration of 1 mg/ml. H202 was added to a final concentration of 0.012% immediately before 100 μl of the substrate was added to each microtiter well. The solution was developed for =30 min at room temperature and quenched by the addition of 50 μl of 4N H2SO4 to each well. The conversion of the colorimetric substrate was measured at a wavelength of 490 nm using a Molecular Dynamics Vmax kinetic plate reader (Sunnyvale, Calif.).
(§2) Bound secondary antibody was detected using the colorimetric substrate as described above.
However, this small peptide was not nearly as effective as the larger, recombinantly expressed AβPP-(18-119) in binding to fibrillar Aβ. Therefore, alanine-scanning mutagenesis studies of the AβPP-(105-119) sequence within AβPP-(18-119) were performed to further identify key epitopes important in facilitating its binding to fibrillar Aβ. Alanine residues were introduced from Cys^105 through Cys^117 of AβPP-(18-119) by site-directed mutagenesis of the AβPP-(18-119) cDNA. Each mutant AβPP-(18-119) cDNA was expressed as a GST fusion protein and purified, and the concentrations were carefully determined by quantitative immunoblotting as described in “Experimental Procedures”.

[3] = target: T3, fibrillar wild-type Aβ-(1-42) (Homo sapiens, UniProt P05067); assay: Solid-phase binding of GST-AβPP-(18-119) proteins to fibrillar wild-type Aβ-(1-42)
T3 construct: made in house; host or cells: chemical synthesis (solid-phase Fmoc)
Experimental: as §1, with “H202 was added to a final concentration of 0.012% immediately before 100 μl of the substrate was added to each microtiter well. The solution was developed for =30 min at room temperature and quenched by the addition of 50 μl of 4N H2SO4 to each well.” left out
as §2

[4] = target: T4, fibrillar amylin peptide (Homo sapiens, UniProt P10997); assay: Solid-phase binding of GST-AβPP-(18-119) proteins to fibrillar amylin
T4 construct: Amylin peptide was obtained from Bachem (San Carlos, Calif.); purchased Bachem (San Carlos, Calif.)
T4 sequence (P10997 34-70 limits assumed): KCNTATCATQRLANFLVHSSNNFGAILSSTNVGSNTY
Experimental: as §1, with “H202 was added to a final concentration of 0.012% immediately before 100 μl of the substrate was added to each microtiter well. The solution was developed for =30 min at room temperature and quenched by the addition of 50 μl of 4N H2SO4 to each well.” left out
as §2

[5] = target: T5, HCSM cell surface fibrillar Aβ (Homo sapiens, UniProt P05067, E693Q); assay: Endogenous sAβPPα binding to fibrillar Aβ on HCSM cell surface; assay type: cell-based; settings: AβPP-(105-119) at higher concentrations
T5 construct: made in house; host or cells: chemical synthesis (solid-phase Fmoc)

[6] = system: HCSM cells; assay: HCSM cell viability (live/dead assay) after Dutch-type Aβ-(1-40); assay type: cell-based, human; settings: 25 μM Dutch-type Aβ-(1-40), 1 μM protein, 6 days at 37° C.
Source text: Primary cultures of HCSM cells were established and characterized. Two lines of HCSM cells were used in these studies. One was derived from a AD patient and the other was derived from a person control. All HCSM cells were used between passages 4-7 and maintained in 24-well tissue culture dishes with Dulbecco's […] containing 10% fetal bovine serum (Gemini Bio-Products, Calabasas, Calif.), non-essential amino acids, and antibiotics (Invitrogen). For experiments, near-confluent cultures of HCSM cells were placed in serum-free medium containing 0.1% BSA, non-essential amino acids, and antibiotics overnight prior to treatment. Freshly solubilized Dutch-type Aβ-(1-40) at a final concentration of 25 μM was added to the cultures in serum-free medium and incubated at 37° C. for 6 days. Cells were routinely viewed and photographed using an Olympus IX70 phase-contrast microscope. Cell viability was quantified using a fluorescent live/dead cell assay following the manufacturer's protocol (Molecular Probes, Eugene, Oreg.). The number of live and dead cells were counted from several fields (n=4) from at least three separate wells for each experiment.
Incubation of HCSM cells with pathogenic Dutch-type Aβ-(1-40) leads to cell death. […]

[7] = system: Aβ; assay: Recombinant MBP regions tested for ability to bind Aβ and inhibit fibrillogenesis; assay type: binding; settings: Aβ form not stated
Experimental: (§3) Using recombinant methodology to express and purify regions of the 18.5 kDa human MBP protein and test their abilities to bind Aβ and inhibit fibrillogenesis, cDNAs were prepared for the following regions of MBP shown in FIG. 3. The cDNAs for MBP fragments were cloned into pTYB11 plasmids containing an ampr gene and transformed into competent E. coli BL21 DE3 cells. Expression of cDNAs in this vector results in a fusion protein containing a chitin binding domain (CBD) as well as a self-cleavable intein protein from S. cerevisiae. CBD-Intein-MBP fusion proteins were captured on chitin beads from the resulting cell lysates. MBP protein fragments were eluted by inducing the cleavage between the C-terminus of the intein and the N-terminus of MBP by exposure to dithiothreitol. […] MBP was further purified by cation exchange chromatography on CM52 resin, resulting in a >95% pure protein preparations. Each of the four MBP fragments were tested for binding to Dutch/Iowa Aβ40 and wild-type Aβ42 by surface plasmon resonance (FIG. 4).
Such a motif, KRGX1X2X3X4X5X6HP (SEQ ID NO:1), was found in MBP 33-64 and in AβPP 54-64. Specifically, the motif in MBP spans residues 54-64. […]

[8] = target: Aβ40DI (Homo sapiens, UniProt P05067, D694N/E693Q); assay: Thioflavin T fluorescence assay of Aβ40DI fibril formation; assay type: biochemical; settings: 12.5 μM Aβ40DI, 1.56 μM protein, PBS, 37° C.
Experimental: FIG. 16 Thioflavin T analysis of inhibition of CAA mutant Aβ fibril formation by MBP. Aβ40DI at a concentration of 12.5 μM in PBS in the absence (□) or presence of 1.56 μM MBP(□) or bovine a-lactalbumin (Lalb; □) as a control. At specific time points, aliquots were collected from each sample and analyzed by thioflavin T binding and fluorescence to determine fibrillar assembly. Data represent the means±S.D. of triplicate samples. A.U., arbitrary units.
The Aβ B binding properties of the exemplary fragments of MBP described herein were determined in a thioflavin T fluorescence assay as follows: Lyophilized Aβ peptides were first resuspended with Me2SO to 2.5 mM, diluted to 12.5 μM in PBS, and then incubated at 37° C. with rocking either alone or with 1.56 μM MBP or bovine α-lactalbumin. Control samples containing 0.5% Me2SO and 1.56 μM MBP or lactalbumin in PBS were also included. At each time point, 100 μl samples of each reaction were placed in a 96-well microplate in triplicate, and 5 μl of 100 µM thioflavin T was added. The plate was mixed and incubated at 22° C. in the dark for 10 min. Fluorescence was measured at 490 nm with an excitation wavelength of 446 nm in a SpectraMax spectrofluorometer (Molecular Devices, Sunnyvale, Calif.) using SoftMax Pro control software. It is apparent that the method enables persons of skill in the art to determine the binding properties of MBP, variants thereof, and fragments thereof for any Aβ-peptide, including mutants thereof.

[9] = target: Dutch/Iowa CAA mutant Aβ40 (Aβ40DI) (Homo sapiens, UniProt P05067, D694N/E693Q); assay: Surface plasmon resonance binding to immobilized Dutch/Iowa Aβ40
Experimental: All runs were performed on a Biacore 2000 instrument using 10 mM HEPES (pH 7.4), 150 mM NaCl, 3 mM EDTA, and 0.005% (v/v) Tween 20 as running buffer and diluent. Streptavidiri was conjugated to the surface of three flow cells of a CM5 chip at 10 μl/min using amine coupling chemistry to a final average response level of 1890.2 response units. N-terminally biotinylated Aβ peptides were resuspended in Me2SO to 2.5 mM and serially diluted to 13 nM immediately before application. Biotinylated Aβ40WT and Aβ40DI were bound to individual flow cells at 10 μl/min to achieve an average relative response level of 157.1 response units, leaving flow cell 1 as reference. […] The resultant Rmax of these surfaces was ˜700 response units with MBP as analyte. Purified MBP was passed over all four flow cells at 5, 10, 25, 50, and 100 nM at a flow rate of 30 μl/min for kinetic measurements. […] Surfaces were regenerated with 0.2 M glycine (pH 2.0) and 150 mM NaCl between runs. The resulting sensorgrams were analyzed by BIAanalysis software. Triplicate concentration series were used for each surface.
as §3

AβPP-(102-116): synthesized overlapping 15-mer peptide of AβPP residues 102-116 (RKQCKTHPHFVIPYR)
competing activity of overlapping 15-mer peptides ([1]; data not shown): approximately half that of AβPP-(105-119)

P109A
binding to fibrillar Aβ compared with wild-type GST-AβPP-(18-119) [2]: little or no effect

F111A
binding to fibrillar Aβ compared with wild-type GST-AβPP-(18-119) [2]: little or no effect

I113A: GST-AβPP-(18-119) with alanine substitution at Ile113
binding to fibrillar wild-type Aβ-(1-42) compared with wild-type GST-AβPP-(18-119) [3]: considerably reduced binding | binding to fibrillar Aβ compared with wild-type GST-AβPP-(18-119) [2]: markedly decreased binding | binding to fibrillar Aβ compared with wild-type GST-AβPP-(18-119) ([2]; listed as Ile^113): highly diminished | binding to fibrillar amylin peptide compared with wild-type GST-AβPP-(18-119) [4]: considerably reduced binding

GST-AβPP-(18-119): glutathione S-transferase fusion protein of AβPP residues 18-119, wild-type
inhibition of endogenous sAβPPα binding to HCSM cell surface fibrillar Aβ [5]: completely inhibited | Aβ-induced HCSM cell death [6]: < 10%

MBP 50-64: MBP residues 50-64, RGAPKRGSGKDSHHP (SEQ ID NO: 51)
abilities to bind Aβ and inhibit fibrillogenesis [7]: carries all the binding activity

AβPP-(105-119): synthesized 15 amino acid peptide spanning residues 105-119 of AβPP (CKTHPHFVIPYRCLV)
competition of biotinylated sAβPPα binding to fibrillar Aβ ([1]; 1 mM peptide): ≈ 80% | inhibition of endogenous sAβPPα binding to HCSM cell surface fibrillar Aβ [5]: partially diminish

C117A mutant GST-AβPP-(18-119): GST-AβPP-(18-119) with alanine substitution at Cys117
binding to fibrillar Aβ compared with wild-type GST-AβPP-(18-119) [2]: markedly diminished binding | binding to fibrillar Aβ compared with wild-type GST-AβPP-(18-119) ([2]; listed as C117A): substantially affects

H110A mutant GST-AβPP-(18-119): GST-AβPP-(18-119) with alanine substitution at His110
binding to fibrillar wild-type Aβ-(1-42) compared with wild-type GST-AβPP-(18-119) [3]: considerably reduced binding | fibrillar Aβ binding compared with wild-type GST-AβPP-(18-119) [2]: < 10% | binding to fibrillar Aβ compared with wild-type GST-AβPP-(18-119) ([2]; listed as H110A): markedly decreased binding | binding to fibrillar Aβ compared with wild-type GST-AβPP-(18-119) ([2]; listed as His^110): highly diminished | binding to fibrillar amylin peptide compared with wild-type GST-AβPP-(18-119) [4]: considerably reduced binding | prevention of Aβ-induced HCSM cell death [6]: incapable of preventing the cytotoxic effects

B1: MBP1 ΔKRG: MBP1 mutant with alanine substitutions in the KRG region (residues 54-56) (protein)
chain: MASQKRPSQRHGSKYLATASTMDHARHGFLRPHRDTGILDSIGRFFGGDRGAPAAASGKDSHHP
inhibition of Aβ40DI fibril assembly (thioflavin T) [8]: lack fibril inhibition | binding to Dutch/Iowa Aβ40 (Aβ40DI) by surface plasmon resonance [9]: do not bind

B2: MBP1 ΔHP: MBP1 mutant with alanine substitutions at HP (residues 63-64) (protein)
chain: MASQKRPSQRHGSKYLATASTMDHARHGFLRPHRDTGILDSIGRFFGGDRGAPKRGSGKDSHAA
inhibition of Aβ40DI fibril assembly (thioflavin T) [8]: lack fibril inhibition | binding to Dutch/Iowa Aβ40 (Aβ40DI) by surface plasmon resonance [9]: do not bind

B3: MBP1 S57A (protein)
chain: MASQKRPSQRHGSKYLATASTMDHARHGFLRPHRDTGILDSIGRFFGGDRGAPKRGAGKDSHHP
binding to Dutch/Iowa Aβ40 (Aβ40DI) by surface plasmon resonance [9]: does bind
